Results as given in patent US20250195677A1.
pKd: −log10 of the molar value.

Biological target: recombinant His-tagged cynomolgus PD-1 (Acro Biosystems) (cynomolgus) (UniProt B0LAJ3)
Assay: SPR Carterra LSA, antibody coupled

Chain of recombinant His-tagged cynomolgus PD-1 (Acro Biosystems) (cynomolgus) (B0LAJ3 entry or part of it limits assumed): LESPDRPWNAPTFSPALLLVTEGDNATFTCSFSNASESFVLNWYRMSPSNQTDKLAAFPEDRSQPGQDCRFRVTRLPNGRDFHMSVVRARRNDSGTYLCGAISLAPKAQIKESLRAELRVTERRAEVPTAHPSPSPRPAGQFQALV

Row | pKd | Substance
1 | 9.24 | KEYTRUDA® (pembrolizumab) (antibody)
2 | 8.19 | OPDIVO® (nivolumab) (antibody)
